Reference: patent US20060058504A1, “Peptides capable of inducing attraction to the axonal growth and their use for treating neurodegenerative diseases” (Centre National de la Recherche Scientific (CNRS), priority 2002, published 2006)
Residue numbers refer to the chain shown, from its start. Names may count otherwise. “Also recorded” adds a separate entry of the source. Read-outs that look alike come from different tables or passages of the source.

B1: L1Fc: soluble wild-type L1Fc chimeric protein (protein)
chain: IQIPEEYEGHHVMEPPVITEQSPRRLVVFPTDDISLKCEASGKPEVQFRWTRDGVHFKPKEELGVTVYQSPHSGSFTITGNNSNFAQRFQGIYRCFASNKLGTAMSHEIRLMAEGAPKWPKETVKPVEVEEGESVVLPCNPPPSAEPLRIYWMNSKILHIKQDERVTMGQNGNLYFANVLTSDNHSDYICHAHFPGTRTIIQKEPIDLRVKATNSMIDRKPRLLFPTNSSSHLVALQGQPLVLECIAEGFPTPTIKWLRPSGPMPADRVTYQNHNKTLQLLKVGEEDDGEYRCLAENSLGSARHAYYVTVEAAPYWLHKPQSHLYGPGETARLDCQVQGRPQPEVTWRINGIPVEELAKDQKYRIQRGALILSNVQPSDTMVTQCEARNRHGLLLANAYIYVVQLPAKILTADNQTYMAVQGSTAYLLCKAFGAPVPSVQWLDEDGTTVLQDERFFPYANGTLGIRDLQANDTGRYFCLAANDQNNVTIMANLKVKDATQITQGPRSTIEKKGSRVTFTCQASFDPSLQPSITWRGDGRDLQELGDSDKYFIEDGRLVIHSLDYSDQGNYSCVASTELDVVESRAQLLVVGSPGPVPRLVLSDLHLLTQSQVRVSWSPAEDHNAPIEKYDIEFEDKEMAPEKWYSLGKVPGNQTSTTLKLSPYVHYTFRVTAINKYGPGEPSPVSETVVTPEAAPEKNPVDVKGEGNETTNMVITWKPLRWMDWNAPQVQYRVQWRPQGTRGPWQEQIVSDPFLVVSNTSTFVPYEIKVQAVNSQGKGPEPQVTIGYSGEDYPQAIPELEGIEILNSSAVLVKWRPVDLAQVKGHLRGYNVTYWREGSQRKHSKRHIHKDHVVVPANTTSVILSGLRPYSSYHLEVQAFNGRGSGPASEFTFSTPEGVPGHPEALHLECQSNTSLLLRWQPPLSHNGVLTGYVLSYHPLDEGGKGQLSFNLRDPELRTHNLTDLSPHLRYRFQLQATTKEGPGEAIVREGGTMALSGISDFGNISATAGENYSVVSWVPKEGQCNFRFHILFKALGEEKGGASLSPQYVSYNQSSYTQWDLQPDTDYEIHLFKERMFRHQMAVKTNGTGRVRLPPAGFATE
modifications: left off: a dimerising Fc or GST
notes: soluble wild-type L1Fc chimeric protein
B2: L120V: L1Fc chimera with missense mutation L120V in Ig domain 1 (protein)
chain: B1 chain with L101V
modifications: left off: a dimerising Fc or GST
B3: G121S: L1Fc chimera with missense mutation G121S in Ig domain 1 (protein)
chain: B1 chain with G102S
modifications: left off: a dimerising Fc or GST

How the values were obtained:
[1] = target: T1, full length human L1 (Homo sapiens, UniProt P32004); assay: Binding of L1Fc chimeras to COS cells expressing wild-type L1 (immunofluorescence)
T1 construct: transiently transfected with expression vectors encoding full length human L1; expressed in transfected cells; host or cells: COS7
T1 sequence (P32004 20-1257): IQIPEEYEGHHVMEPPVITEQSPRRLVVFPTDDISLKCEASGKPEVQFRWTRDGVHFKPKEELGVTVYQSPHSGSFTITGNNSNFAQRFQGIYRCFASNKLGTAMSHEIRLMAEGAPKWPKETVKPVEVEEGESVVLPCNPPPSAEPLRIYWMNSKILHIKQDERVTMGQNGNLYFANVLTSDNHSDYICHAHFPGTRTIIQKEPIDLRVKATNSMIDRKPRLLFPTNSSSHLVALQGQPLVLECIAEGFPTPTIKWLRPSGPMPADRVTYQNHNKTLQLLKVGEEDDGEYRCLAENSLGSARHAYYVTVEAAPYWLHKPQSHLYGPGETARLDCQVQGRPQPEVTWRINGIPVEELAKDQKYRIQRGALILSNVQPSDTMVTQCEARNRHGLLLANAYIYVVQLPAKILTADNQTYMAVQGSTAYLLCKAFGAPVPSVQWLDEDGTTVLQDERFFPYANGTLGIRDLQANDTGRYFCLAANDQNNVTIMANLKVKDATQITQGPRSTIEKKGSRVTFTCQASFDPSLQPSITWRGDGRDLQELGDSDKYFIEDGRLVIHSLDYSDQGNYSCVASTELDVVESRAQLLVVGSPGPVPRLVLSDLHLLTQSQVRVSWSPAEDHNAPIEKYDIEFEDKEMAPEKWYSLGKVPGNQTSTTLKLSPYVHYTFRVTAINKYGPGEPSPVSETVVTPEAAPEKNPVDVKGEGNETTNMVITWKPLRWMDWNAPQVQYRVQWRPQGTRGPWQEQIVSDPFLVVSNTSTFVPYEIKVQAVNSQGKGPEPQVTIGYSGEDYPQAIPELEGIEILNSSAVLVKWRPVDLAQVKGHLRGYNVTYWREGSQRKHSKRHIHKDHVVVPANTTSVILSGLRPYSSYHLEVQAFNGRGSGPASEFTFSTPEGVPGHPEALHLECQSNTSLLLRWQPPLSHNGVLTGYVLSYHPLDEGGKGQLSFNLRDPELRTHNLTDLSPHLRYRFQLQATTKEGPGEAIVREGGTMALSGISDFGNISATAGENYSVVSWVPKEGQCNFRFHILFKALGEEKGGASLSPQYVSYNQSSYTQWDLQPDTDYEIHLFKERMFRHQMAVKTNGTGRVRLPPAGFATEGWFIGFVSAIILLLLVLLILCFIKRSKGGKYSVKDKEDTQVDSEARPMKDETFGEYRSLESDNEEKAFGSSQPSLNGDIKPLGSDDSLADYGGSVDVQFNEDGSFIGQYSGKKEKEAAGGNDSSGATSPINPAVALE
Method: (§1) The mutant L1Fc chimeras were produced and purified as described previously (De Angelis et al., 1999). Briefly, COS-7 cells were transiently transfected with 10 μg DNA per 150 mm culture dish, the soluble Fc chimeric protein was allowed to accumulate in the media for 6 days and was recovered and purified by protein A-Sepharose affinity chromatography. In the binding experiments, L1Fcs were cross-linked to anti-human Fc antibodies (50 μg/ml, Jackson Immunoresearch) for 1 hr at 37° C. Binding detection to NP-1 requested concentrations of L1Fcs 10 folds higher than L1. Antibody conjugated L1-Fc protein was then incubated with monolayers of COS7 cells transiently transfected with expression vectors encoding full length human L1 or myc-tagged NP-1 where the cytoplasmic domain is deleted (gift of J. Raper, 2000 and Renzi et al., 1999). Following incubation, the cells were fixed with 4% PFA, and processed for double-immunofluorescence detection. NP-1 was detected using a mouse anti-c myc antibody (clone 9E10, Sigma) and L1 using a rat monoclonal anti-L1 antibody. Secondary antibody anti-c-myc (Texas-red conjugated anti-mouse antibodies) was used to detect NP-1, anti-L1 (Texas red conjugated anti-rat antibodies) to detect L1, and anti-Fc (FITC conjugated anti-rabbit antibodies) to detect bound L1Fc chimeras. After secondary antibody incubation, the cells were washed with PBS and mounted in Mowiol (Calbiochem).
Thus, Ig CAMs F3 and TAG-1 (the rodent homologue of axonin-1) ate unlikely to be axonal receptors for L1Fc in the reversion process. […] In the present study however, mutated L1Fc proteins were required to interact with wild-type L1 expressed on growth cones. To formally exclude a role for homophilic binding of L1 in the initiation of the reversion process, it was therefore necessary to examine whether homophilic binding of the mutated L1Fc chimeras to wild-type L1 was also disrupted. Mutated L1Fcs were therefore incubated with COS7 cells transfected with full-length wild-type L1 cDNA and binding was assessed by immunofluorescence. In parallel, homophilic binding of mutant/mutant and mutant/wild-type L1Fcs was compared in a two-color FACS aggregation assay, allowing a quantitative assessment to be made (see Methods). […] Similarly, in the two color FACS assay homophilic binding was restored to 74.4% and 90.5% of wild-type levels for A426D and H210Q respectively (FIG. 2B). […] This mutation however still promoted the L1 Fc induced switching of Sema3A repulsion to attraction in the co-culture assay. Thus, the ability of L1Fc to switch Sema3A repulsion is not dependent on homophilic binding. Consequently, the trans interaction of L1Fc with L1 in the receptor complex is not required for the change in growth cone responsiveness to Sema3A.

[2] = target: Plexin-A1 (Homo sapiens, UniProt Q9UIW2); assay: Binding of L1Fc to Plexin-A1 expressing COS7 cells (immunofluorescence)
Chain of Plexin-A1 (Q9UIW2 27-1896, species assumed): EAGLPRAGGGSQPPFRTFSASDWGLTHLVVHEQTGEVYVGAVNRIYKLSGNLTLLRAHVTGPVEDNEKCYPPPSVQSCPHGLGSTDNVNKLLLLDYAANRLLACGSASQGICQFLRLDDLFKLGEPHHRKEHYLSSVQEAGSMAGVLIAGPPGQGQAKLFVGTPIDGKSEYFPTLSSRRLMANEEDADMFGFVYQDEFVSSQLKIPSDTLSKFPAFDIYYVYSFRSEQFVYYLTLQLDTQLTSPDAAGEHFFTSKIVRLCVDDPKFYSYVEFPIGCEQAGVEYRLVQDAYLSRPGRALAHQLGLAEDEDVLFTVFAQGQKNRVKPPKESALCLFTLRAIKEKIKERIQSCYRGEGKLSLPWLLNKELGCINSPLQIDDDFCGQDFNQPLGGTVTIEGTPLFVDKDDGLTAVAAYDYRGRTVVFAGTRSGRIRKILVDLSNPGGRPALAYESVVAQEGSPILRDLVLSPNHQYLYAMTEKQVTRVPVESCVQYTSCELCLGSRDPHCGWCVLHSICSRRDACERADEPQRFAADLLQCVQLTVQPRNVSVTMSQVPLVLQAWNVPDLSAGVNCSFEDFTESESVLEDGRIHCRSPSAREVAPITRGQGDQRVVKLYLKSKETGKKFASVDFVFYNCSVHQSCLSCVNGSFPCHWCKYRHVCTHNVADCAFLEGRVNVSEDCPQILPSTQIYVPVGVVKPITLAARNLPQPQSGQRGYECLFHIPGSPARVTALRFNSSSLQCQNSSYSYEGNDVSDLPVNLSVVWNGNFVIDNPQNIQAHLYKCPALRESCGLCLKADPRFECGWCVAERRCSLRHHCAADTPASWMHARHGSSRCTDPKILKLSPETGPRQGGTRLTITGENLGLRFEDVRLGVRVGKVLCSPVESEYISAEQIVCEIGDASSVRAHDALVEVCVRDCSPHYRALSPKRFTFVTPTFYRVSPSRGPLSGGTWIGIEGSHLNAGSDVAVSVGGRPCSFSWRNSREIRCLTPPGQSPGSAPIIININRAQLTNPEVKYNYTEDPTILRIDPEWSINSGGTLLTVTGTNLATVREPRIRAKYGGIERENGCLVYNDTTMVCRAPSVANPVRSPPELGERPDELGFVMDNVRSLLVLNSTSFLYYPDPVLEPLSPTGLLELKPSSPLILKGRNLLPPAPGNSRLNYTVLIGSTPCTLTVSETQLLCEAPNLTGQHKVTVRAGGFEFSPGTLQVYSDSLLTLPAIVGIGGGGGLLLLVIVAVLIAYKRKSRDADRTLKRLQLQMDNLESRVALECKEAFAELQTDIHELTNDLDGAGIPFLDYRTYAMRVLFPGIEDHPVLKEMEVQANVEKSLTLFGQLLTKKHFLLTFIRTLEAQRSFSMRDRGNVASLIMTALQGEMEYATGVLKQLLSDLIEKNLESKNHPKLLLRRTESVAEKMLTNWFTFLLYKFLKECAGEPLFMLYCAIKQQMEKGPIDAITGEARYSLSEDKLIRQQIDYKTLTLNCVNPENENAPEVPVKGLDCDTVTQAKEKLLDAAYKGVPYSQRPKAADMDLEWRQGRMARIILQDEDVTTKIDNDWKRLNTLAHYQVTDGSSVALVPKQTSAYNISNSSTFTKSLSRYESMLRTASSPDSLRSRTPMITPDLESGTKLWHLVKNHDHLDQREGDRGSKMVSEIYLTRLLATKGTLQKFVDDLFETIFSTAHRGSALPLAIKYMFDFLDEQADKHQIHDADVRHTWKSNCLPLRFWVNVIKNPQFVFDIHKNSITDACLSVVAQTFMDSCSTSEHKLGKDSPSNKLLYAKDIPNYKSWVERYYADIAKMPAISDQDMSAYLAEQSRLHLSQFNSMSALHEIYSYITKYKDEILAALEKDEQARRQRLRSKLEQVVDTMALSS

[3] = test system: cortical axons repelled by Sema3A secreted from the ventral spinal cord; assay: Co-culture of cortical slices and ventral spinal cord explants (axon guidance response to Sema3A); assay type: cell-based, mice; settings: for switching of Sema3A repulsion to attraction by L1Fc chimera: chimera 3 μg/ml in culture medium; for guidance index: qualitative index from −2 (repulsion) to +2 (attraction), L1Fc chimeras 3 μg/ml, ODQ 10^−5M
Method: Blocks of cortex were dissected from P0 (postnatal day 0) to P2 mice and cut into 250 μm thick slices with a McIlwain tissue chopper. The ventral part of the cervical spinal cord was dissected and cut into 250 μm thick slices. Co-culture of cortical slices and ventral spinal cord explants were performed in a three-dimensional plasma clot, as described previously (Castellani et al., 2000). Cortical slices were oriented in the plasma clot as indicated in FIG. 1B to give to axons equivalent chances to be deflected away or towards the spinal cord explant. Purified wild-type or mutant L1Fc chimeras were added to the culture medium (3 μg/ml). Inhibitors of the guanylyl cyclase (ODQ, 10^−5 M, Sigma) and NOS (7NI, […], Sigma) were added to the culture medium, either alone or with wild-type L1Fc (3 μg/ml). After one or two days in vitro (DIV), the cultures were fixed with 4% paraformaldehyde (PFA) and analyzed by phase contrast microscopy (Axiovert 35-M, Zeiss). A qualitative guidance index was attributed to the co-cultures, to assess the degree of repulsive (negative values) or attractive (positive values) effects (Castellani et al., 2000). The index ranged from −2 (when most fibers grew away from the spinal cord explant) to +2 (when most fibers grew towards the explant), with intermediate situations (index of −1 and +1 for moderate guidance effects). An index of zero was attributed to the cultures showing no preferential growth. Quantitative analysis of axon length and number of axons growing from cortical slices was performed as described previously (Castellani et al., 2000). A proximal and a distal region, each of them covering a 600 μm-piece of cortical tissue were determined for each culture. All fibers extending from these two regions were counted and the length of the three longest fibers was measured, using computer analysis software (Visiolab 2000, Biocom). Immunofluorescence labeling of axons was performed using the mouse anti-phosphorylated neurofilament antibody SMI31 (Stemberger and Meyer Inc.), and Texas red-conjugated secondary anti-mouse antibody (see result obtained for number of axons and axonal length in the following tables 1 and 2).
It has been previously developed an assay system using explants of ventral spinal cord co-cultured with cortical axons in order to determine the factors involved in axonal repulsion and attraction (Castellani et al., 2000). Using this system we have shown that Sema3A secreted from the ventral spinal cord repels cortical axons. In the presence of soluble wild-type L1Fc chimeric protein however, repulsion is switched to attraction (Castellani et al., […]). In the present study, we aimed to identify the L1 interactions underlying the switching process. As Ig domains have been implicated in binding of Ig CAMs to many of their ligands (Brümmendorf and Rathjen, 1996) we hypothesized that they would also be required for L1 Fc-mediated switching. […] L1 Fc chimeras containing pathological missense mutations affecting specific Ig domains (De Angelis et al., 1999 and FIGS. 1A, 1B) were assessed for their ability to reverse Sema3A repulsion to attraction.

[4] = test system: L1; settings: mutant bound to itself; cited from earlier work
[5] = test system: F3, axonin-1 and TAX-1; settings: F3, axonin-1 (and TAX-1 where stated); cited from earlier work
[6] = test system: NP-1; assay: Binding of L1Fc chimeras to NP-1 expressing COS7 cells (immunofluorescence)
Method: as §1
Next, we examined the ability of the mutant L1 Fc chimeras to bind NP-1. COS7 cells were transfected with a vector encoding the extracellular and transmembrane domains of NP-1 fused to a myc tag (ANP-1, Renzi et al., J. Neurosci., 15:7870-7880, 1999), and incubated with the mutant L1Fc chimeras. Binding was detected by immunofluorescence. […] Binding of L120V, G121S and A426D L1Fcs to NP-1 is illustrated in FIG. 3.

[7] = test system: wild-type L1; assay: Two-color FACS aggregation assay (homophilic binding); settings: mixed aggregates at the 30-minute time-point; mutant/wild-type
Chain of wild-type L1 (P32004 with tags, fused parts or gaps limits assumed): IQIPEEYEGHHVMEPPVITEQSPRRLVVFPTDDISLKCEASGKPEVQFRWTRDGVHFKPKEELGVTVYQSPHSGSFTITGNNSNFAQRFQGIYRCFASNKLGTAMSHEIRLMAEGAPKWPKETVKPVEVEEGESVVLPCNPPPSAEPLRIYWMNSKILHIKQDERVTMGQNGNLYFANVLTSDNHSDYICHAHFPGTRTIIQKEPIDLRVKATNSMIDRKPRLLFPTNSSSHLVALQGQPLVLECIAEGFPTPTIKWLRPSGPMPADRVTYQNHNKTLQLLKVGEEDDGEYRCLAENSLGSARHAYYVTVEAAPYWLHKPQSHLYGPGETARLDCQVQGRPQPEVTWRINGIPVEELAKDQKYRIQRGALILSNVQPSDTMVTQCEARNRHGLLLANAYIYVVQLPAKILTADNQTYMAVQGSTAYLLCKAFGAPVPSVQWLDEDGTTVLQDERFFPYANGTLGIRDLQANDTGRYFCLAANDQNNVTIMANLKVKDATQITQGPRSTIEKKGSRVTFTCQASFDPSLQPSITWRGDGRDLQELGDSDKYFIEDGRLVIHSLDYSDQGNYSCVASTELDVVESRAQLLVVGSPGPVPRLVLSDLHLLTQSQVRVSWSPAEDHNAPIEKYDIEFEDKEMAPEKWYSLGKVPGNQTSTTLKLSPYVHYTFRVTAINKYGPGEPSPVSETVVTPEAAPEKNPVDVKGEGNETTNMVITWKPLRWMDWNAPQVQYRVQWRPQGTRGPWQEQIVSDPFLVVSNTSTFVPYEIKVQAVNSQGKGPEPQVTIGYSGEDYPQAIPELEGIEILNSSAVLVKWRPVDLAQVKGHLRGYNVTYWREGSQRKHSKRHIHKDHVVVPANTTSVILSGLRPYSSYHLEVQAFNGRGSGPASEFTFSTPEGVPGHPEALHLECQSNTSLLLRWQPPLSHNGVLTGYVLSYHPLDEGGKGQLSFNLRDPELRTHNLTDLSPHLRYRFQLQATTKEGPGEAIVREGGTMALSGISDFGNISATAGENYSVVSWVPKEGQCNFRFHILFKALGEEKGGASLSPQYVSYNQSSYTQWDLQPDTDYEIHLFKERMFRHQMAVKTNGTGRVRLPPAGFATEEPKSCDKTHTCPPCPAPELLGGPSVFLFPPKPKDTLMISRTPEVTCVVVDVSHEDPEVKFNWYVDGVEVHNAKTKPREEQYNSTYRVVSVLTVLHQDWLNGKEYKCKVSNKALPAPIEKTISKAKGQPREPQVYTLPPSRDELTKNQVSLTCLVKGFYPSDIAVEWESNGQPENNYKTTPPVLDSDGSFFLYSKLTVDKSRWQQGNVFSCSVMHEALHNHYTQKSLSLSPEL
Method: A two-color aggregation assay was developed, modified from the homophilic binding assay described by De Angelis et al. (1999). For the two-color assay, red and green fluorescent microsphere beads (0.6 um, Duke Scientific Corps.) were coated with anti-human IgG antibody (Fc specific; Sigma, 1-2136). 2.5 μg of wild type (red beads) or mutant (green beads) L1Fc-proteins were conjugated to 10 μl of antibody-coated beads by incubating for 2 hrs at 37° C. Excess unbound protein was removed by washing with PBS/5% FCS. For each mutant, a 1:1 mixture of wild-type L1 and mutant L1 coated beads was prepared, dissaggregated to produce a single bead suspension and allowed to form mixed aggregates at 37° C. with samples removed in duplicate over a 30-minute time course. Samples were diluted 1:5000 into ice cold PBS and the proportion of 2 colour aggregates was assessed using a fluorescence activated cell sorter (Becton Dickenson FACSort). Ten thousand particles were counted per sample and categorised as red only (WT-L1: WT-L1), green only (Mutant L1: Mutant L1) or mixed aggregates. Every mutant protein was assayed at least 3 separate times and standardised to a wild-type control conducted in parallel.

[8] = Ctx/vSC co-culture, growth away from spinal cord explant, L1Fc 3 μg/ml, ODQ 10^−5 M
[9] = Ctx/vSC co-culture, growth towards spinal cord explant, L1Fc 3 μg/ml, ODQ 10^−5 M

Molecule	binding to wild-type L1 expressed in COS cells [1]	binding to wild-type L1 expressed in COS cells ([1]; listed as Wild-type L1 Fc)	binding to Plexin-A1 expressing cells [2]	binding to Plexin-A1 expressing cells ([2]; listed as Wild-type L1 Fc)	Axonal length, Away [3, 8]	Number of axons, Away [3, 8]	Axonal length, Towards [3, 9]	Number of axons, Towards [3, 9]	switching of Sema3A repulsion to attraction by L1Fc chimera [3]	guidance index [3]	effect of mutation on homophilic binding [4]	effect of mutation on heterophilic binding [5]	binding to NP-1 expressing cells [6]	binding to NP-1 expressing cells ([6]; listed as L120V-L1Fc)	homophilic binding to wild-type L1, percent of wild-type levels [7]
B1	clear binding	bound to L1	no binding to Plexin-A1 expressing cells	not Plexin-A 1-expressing cells	198.6 +/− 4	5.8 +/− 0.7	346.8 +/− 5, *	22.6 +/− 1.6, *	switched repulsion to attraction	+1.5	–	–	–	–	–
B2	bound to wild-type L1	–	–	–	–	–	–	–	unable to switch the repulsive activity of Sema3A to attraction; also recorded: abrogated the reversal of Sema3A repulsion to attraction; also recorded: failed to reverse Sema3A effect	−1.3	does not affect	does not affect	did not	did not bind NP-1	100%
B3	did not; also recorded: almost abolished homophilic binding to wild-type L1	–	–	–	–	–	–	–	able to reverse Sema3A repulsion to attraction; also recorded: efficiently induce switching of Sema3A repulsion to attraction; also recorded: switched Sema3A from repulsion to attraction to the same extent as wild type L1Fc	–	reduce homophilic binding	reduce	bound to NP-1 expressing cells	–	extremely low; also recorded: almost abolished homophilic binding to wild-type L1
